Reference: publication PMC11315935, “Multi-layered heterochromatin interaction as a switch for DIM2-mediated DNA methylation” (Nature Communications, 2024)
Numbering of substitutions follows the chain as printed. In names and notes the source's numbering stands. Entries after “also recorded” stand apart in the source; their conditions may differ.

B1: DIM2R1104A: DIM2 with TRD mutation R1104A (protein)
chain: MDSPDRSHGGMFIDVPAETMGFQEDYLDMFASVLSQGLAKEGDYAHHQPLPAGKEECLEPIAVATTITPSPDDPQLQLQLELEQQFQTESGLNGVDPAPAPESEDEADLPDGFSDESPDDDFVVQRSKHITVDLPVSTLINPRSTFQRIDENDNLVPPPQSTPERVAVEDLLKAAKAAGKNKEDYIEFELHDFNFYVNYAYHPQEMRPIQLVATKVLHDKYYFDGVLKYGNTKHYVTGMQVLELPVGNYGASLHSVKGQIWVRSKHNAKKEIYYLLKKPAFEYQRYYQPFLWIADLGKHVVDYCTRMVERKREVTLGCFKSDFIQWASKAHGKSKAFQNWRAQHPSDDFRTSVAANIGYIWKEINGVAGAKRAAGDQLFRELMIVKPGQYFRQEVPPGPVVTEGDRTVAATIVTPYIKECFGHMILGKVLRLAGEDAEKEKEVKLAKRLKIENKNATKADTKDDMKNDTATESLPTPLRSLPVQVLEATPIESDIVSIVSSDLPPSENNPPPLTNGSVKPKAKANPKPKPSTQPLHAAHVKYLSQELVNKIKVGDVISTPRDDSSNTDTKWKPTDTDDHRWFGLVQRVHTAKTKSSGRGLNSKSFDVIWFYRPEDTPCCAMKYKWRNELFLSNHCTCQEGHHARVKGNEVLAVHPVDWFGTPESNKGEFFVRQLYESEQRRWITLQKDHLTCYHNQPPKPPTAPYKPGDTVLATLSPSDKFSDPYEVVEYFTQGEKETAFVRLRKLLRRRKVDRQDAPANELVYTEDLVDVRAERIVGKCIMRCFRPDERVPSPYDRGGTGNMFFITHRQDHGRCVPLDTLPPTLRQGFNPLGNLGKPKLRGMDLYCGGGNFGRGLEEGGVVEMRWANDIWDKAIHTYMANTPDPNKTNPFLGSVDDLLRLALEGKFSDNVPRPGEVDFIAAGSPCPGFSLLTQDKKVLNQVKNQSLVASFASFVDFYRPKYGVLENVSGIVQTFVNRKQDVLSQLFCALVGMGYQAQLILGDAWAHGAPQSRERVFLYFAAPGLPLPDPPLPSHSHYRVKNRNIGFLCNGESYVQRSFIPTAFKFVSAGEGTADLPKIGDGKPDACVRFPDHRLASGITPYIAAQYACIPTHPYGMNFIKAWNNGNGVMSKSDRDLFPSEGKTRTSDASVGWKRLNPKTLFPTVTTTSNPSDARMGPGLHWDEDRPYTVQEMRRAQGYLDEEVLVGRTTDQWKLVGNSVSRHMALAIGLKFREAWLGTLYD
modifications: left off: His6, N-terminal, cleaved | MBP, N-terminal, cleaved
notes: DIM2 with TRD mutation R1104A
B2: DIM2LLR: DIM2 L134A/L139A/R1104A triple mutation (protein)
chain: B1 chain with L134A, L139A
modifications: left off: His6, N-terminal, cleaved | MBP, N-terminal, cleaved
notes: DIM2 L134A/L139A/R1104A triple mutation
B3: DIM2W261A: DIM2 with W261A mutation to the RFTS domain (protein)
chain: B1 chain with W261A, A1104R
modifications: left off: His6, N-terminal, cleaved | MBP, N-terminal, cleaved
notes: DIM2 with W261A mutation to the RFTS domain
B4: DIM2W581A: DIM2 with W581A mutation to the BAH1 domain (protein)
chain: B1 chain with W581A, A1104R
modifications: left off: His6, N-terminal, cleaved | MBP, N-terminal, cleaved
notes: DIM2 with W581A mutation to the BAH1 domain
B5: DIM2L134A/L139A: DIM2 L134A/L139A double mutation (protein)
chain: B1 chain with L134A, L139A, A1104R
modifications: left off: His6, N-terminal, cleaved | MBP, N-terminal, cleaved
notes: DIM2 L134A/L139A double mutation

How the values were obtained:
[1] = tested on: (CTA)12/(TAG)12 36-mer DNA duplex; assay: In vitro DNA methylation assay of DIM2 (WT or mutant); assay type: biochemical; set-up: DNA methylation activity: unit not given here; details: for reduction of DNA methylation efficiency of DIM2 by mutation: vs WT DIM2
HP1 = assay: Size-exclusion chromatography of DIM2-HP1 complex; assay type: binding, Neurospora Crassa; details: 1.0 µM DIM2 and/or 2.5 µM HP1, Superdex 200 increase 10/300 GL, pH 7.5
Method: For size-exclusion chromatography analysis, 400 µL of the sample mixture containing 1.0 µM DIM2 and/or 2.5 µM HP1 was loaded onto Superdex 200 increase 10/300 GL column (GE Healthcare) and eluted at a flow rate of 0.5 mL/min, in the buffer containing 20 mM Tris-HCl (pH 7.5), 100 mM NaCl, 5% glycerol, and 5 mM DTT. The proteins in each fraction were then visualized by SDS-PAGE.

[2] = Thermal shift assay, protein alone; assay type: physicochemical; details: 5 μM DIM2 or 10 µM HP1, pH 7.5, 1× GloMelt Dye, 4 to 95 °C, triplicate
Method: Thermal shift assays were performed for WT and R1104A DIM2 proteins using a Bio-Rad CFX Connect Real-Time PCR Detection System. Each 20-µL reaction mixture contained 5 μM WT or R1104A-mutated DIM2, and/or 10 µM HP1 protein, dissolved in buffer containing 20 mM Tris-HCl (pH 7.5), 100 mM NaCl, 5% glycerol, 5 mM DTT, and 1× GloMelt Dye (Biotium). The sample plates were subject to heat from 4 to 95 °C with a stepwise increment of 5 °C. Fluorescence intensity was recorded with the excitation and emission wavelength of 470 nm and 510 nm, respectively. The experiments were carried out in triplicate.

[3] = tested on: DNA duplex (Upper strand: 5’-ATTATTAATCTAAATTTA-3’); assay: Electrophoretic mobility shift assay (EMSA); assay type: binding; details: 0.1 µM DNA duplex, 0, 0.2 or 0.4 µM DIM2, in presence of 0.8 µM H3K9me3 peptide, pH 8.0, 4 °C
Method: Each 10-µL reaction mixture contained 0.1 µM DNA duplex (Upper strand: 5’-[…]-3’) mixed with 0, 0.2, or 0.4 µM DIM2, WT or mutant (W261A or W581A), and/or 0.8 µM H3K9me3 peptide in binding buffer containing 20 mM Tris-HCl (pH 8.0), 75 mM NaCl, 10% glycerol, 5 mM DTT, and 2% NP-40. Samples were resolved on a 5% w/v polyacrylamide gel (59:1 for acrylamide:bis-acrylamide) with the running buffer containing 1 × Tris-Glycine (pH 8.6) at 4 °C for 1 h. The gel was stained with SYBR™ Gold (Thermo Fisher Scientific) for 10 min and visualized by ChemiDoc Imaging System (Bio-Rad).

[4] = Fig. 2g, in the presence of HP1 (2 µM) and H3_1-24K9me3 peptide (1.0 µM), 1.0 µM DIM2, 30 °C, 30 min, pH 8.0, replicate 1
[5] = Fig. 2g, in the presence of HP1 (2 µM) and H3_1-24K9me3 peptide (1.0 µM), 1.0 µM DIM2, 30 °C, 30 min, pH 8.0, replicate 2
[6] = Fig. 2g, in the presence of HP1 (2 µM) and H3_1-24K9me3 peptide (1.0 µM), 1.0 µM DIM2, 30 °C, 30 min, pH 8.0, replicate 3
[7] = Fig. 6d, H3_1-24K9me3 binding-associated mutants, 1.0 µM DIM2, 1.0 µM DNA duplex, 30 °C, 30 min, pH 8.0, replicate 1
[8] = Fig. 6d, H3_1-24K9me3 binding-associated mutants, 1.0 µM DIM2, 1.0 µM DNA duplex, 30 °C, 30 min, pH 8.0, replicate 2
[9] = Fig. 6d, H3_1-24K9me3 binding-associated mutants, 1.0 µM DIM2, 1.0 µM DNA duplex, 30 °C, 30 min, pH 8.0, replicate 3

Molecule | DIM2-HP1 complex formation (in words) (HP1) | DNA methylation activity [1, 4] | DNA methylation activity [1, 5] | DNA methylation activity [1, 6] | DNA methylation activity [1, 7] | DNA methylation activity [1, 8] | DNA methylation activity [1, 9] | reduction of DNA methylation efficiency of DIM2 by mutation [1] | DNA-binding affinity of DIM2 (in words) [3] | other results
B1 | did not affect the assembly of the DIM2-HP1 complex appreciably; also recorded: barely impacts the association of the DIM2-HP1 complex |  |  |  |  |  |  |  |  | DNA methylation activity ([1]; Fig. 3h, in the presence of HP1 (2 µM) and H3_1-24K9me3 peptide (1.0 µM), 1.0 µM DIM2, 30 °C, 30 min, pH 8.0, replicate 1): 3.1; DNA methylation activity ([1]; Fig. 3h, in the presence of HP1 (2 µM) and H3_1-24K9me3 peptide (1.0 µM), 1.0 µM DIM2, 30 °C, 30 min, pH 8.0, replicate 2): 2.552; DNA methylation activity ([1]; Fig. 3h, in the presence of HP1 (2 µM) and H3_1-24K9me3 peptide (1.0 µM), 1.0 µM DIM2, 30 °C, 30 min, pH 8.0, replicate 3): 2.87; melting temperature (Tm) [2]: 39.5 °C
B2 | complete disruption of the DIM2-HP1 complex | 0.066 | 0.154 | 0.275 |  |  |  |  |  | DNA methylation activity of DIM2 (in words) ([1]; 1.0 µM DIM2, 30 °C, 30 min, pH 8.0): completely abolished the DNA methylation activity
B3 |  |  |  |  | 3.359 | 3.206 | 3.347 | 4–5 fold | modestly reduced the DNA-binding affinity | 
B4 |  |  |  |  | 4.016 | 4.128 | 4.356 | 4–5 fold | modestly reduced the DNA-binding affinity | 
B5 | partial disruption of the DIM2-HP1 complex | 1.016 | 1.136 | 1.188 |  |  |  |  |  | 
